Measurements taken from patent US20230159934, “INSULIN RECEPTOR APTAMER AND PHARMACEUTICAL COMPOSITION FOR TREATING DIABETES COMPRISING THE SAME” (APTAMER SCIENCES INC., published 2023).

Tests used:
Details in all cases: chain copies: 2
[1] = molecular target: T1, Insulin receptor on differentiated 3T3-L1 adipocytes (UniProt P15208;P15208 P15208:28-748,P15208:753-1372); experiment: cell_activity; lipolysis (glycerol release) inhibition in 3T3-L1 adipocytes; insulin 2.07 nM
Method: To identify the effect of the chemically optimized A48m (A48m combi 2 to 5) on lipolysis inhibition as insulin receptor aptamers, an amount of glycerol released in a lipolysis process was measured by using completely differentiated 3T3-L1 adipocytes.
Particularly, for serum deficiency, the completely differentiated 3T3-L1 adipocytes were treated with DMEM with no FBS for 3 hours and treated with a Krebs-Ringer HEPES buffer solution for 1 hour to induce lipolysis caused by deficiency of glucose. The adipocytes were treated respectively with insulin or the A48m combi 3 aptamer in concentrations of 0.93 nM, 2.59 nM, 7.26 nM, 20.34 nM, 56.94 nM, 159.44 nM, 446.43 nM, 1250 nM, and 3500 nM for 4 hours, and then a buffer used to treat the cells was collected. 20 μl of the collected buffer was added to a 96-well plate and 200 μl of a free glycerol reagent (Sigma F6428) was added thereto, followed by reaction at room temperature for 30 minutes. Then, concentration-dependent color development of glycerol released from the cells was measured by measuring absorbance at 540 nm.

[2] = molecular target: T1, Insulin receptor on differentiated …; experiment: cell_activity; glucose uptake in differentiated 3T3-L1 adipocytes; insulin 9.6 nM
Method: For serum deficiency, the completely differentiated 3T3-L1 adipocytes were treated with DMEM with no FBS for 3 hours and treated with a Krebs-Ringer HEPES buffer solution for 1 hour. Subsequently, the adipocytes were treated respectively with insulin or the A48m combi 3 aptamer in concentrations of 1.6 nM, 8 nM, 40 nM, 200 nM, and 1000 nM for a given time and then treated with 2-deoxy[14C]glucose (0.1 μCi/ml) for 10 minutes. The resultant was washed three times with PBS supplemented with 20 mM glucose and the cells were dissolved using a solution including 0.5 N NaOH and 1% SDS. An amount of 2-Deoxy-D-glucose absorbed into the cells was observed using a liquid scintillation counter.

[3] = molecular target: T2, Insulin receptor (hIR) expressed on Rat-1/hIR cells (Homo sapiens, UniProt P06213;P06213 P06213:28-758,P06213:763-1382); experiment: cell_activity; IR phosphorylation, 200 nM, Rat-1/hIR; Table 5 gives 0.83
T2 sequence (P06213 28-758, chain 1 of 2): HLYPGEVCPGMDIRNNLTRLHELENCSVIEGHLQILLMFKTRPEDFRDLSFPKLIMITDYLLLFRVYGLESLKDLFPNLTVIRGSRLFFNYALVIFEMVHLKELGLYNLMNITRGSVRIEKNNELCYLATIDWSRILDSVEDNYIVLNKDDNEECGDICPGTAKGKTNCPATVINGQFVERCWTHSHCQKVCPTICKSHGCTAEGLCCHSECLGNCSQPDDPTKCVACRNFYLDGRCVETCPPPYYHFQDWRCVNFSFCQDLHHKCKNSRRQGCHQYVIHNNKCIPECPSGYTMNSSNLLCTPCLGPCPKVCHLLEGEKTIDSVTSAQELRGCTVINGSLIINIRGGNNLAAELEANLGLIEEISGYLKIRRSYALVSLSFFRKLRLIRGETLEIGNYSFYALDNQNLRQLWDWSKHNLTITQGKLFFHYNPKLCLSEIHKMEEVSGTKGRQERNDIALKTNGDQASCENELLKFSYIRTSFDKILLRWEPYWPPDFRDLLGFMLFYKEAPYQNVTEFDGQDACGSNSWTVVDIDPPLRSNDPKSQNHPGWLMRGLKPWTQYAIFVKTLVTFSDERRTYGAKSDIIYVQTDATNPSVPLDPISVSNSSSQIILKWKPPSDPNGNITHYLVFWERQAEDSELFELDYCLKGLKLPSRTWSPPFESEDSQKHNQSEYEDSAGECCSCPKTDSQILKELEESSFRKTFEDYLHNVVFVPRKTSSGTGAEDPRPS
T2 sequence (P06213 763-1382, chain 2 of 2): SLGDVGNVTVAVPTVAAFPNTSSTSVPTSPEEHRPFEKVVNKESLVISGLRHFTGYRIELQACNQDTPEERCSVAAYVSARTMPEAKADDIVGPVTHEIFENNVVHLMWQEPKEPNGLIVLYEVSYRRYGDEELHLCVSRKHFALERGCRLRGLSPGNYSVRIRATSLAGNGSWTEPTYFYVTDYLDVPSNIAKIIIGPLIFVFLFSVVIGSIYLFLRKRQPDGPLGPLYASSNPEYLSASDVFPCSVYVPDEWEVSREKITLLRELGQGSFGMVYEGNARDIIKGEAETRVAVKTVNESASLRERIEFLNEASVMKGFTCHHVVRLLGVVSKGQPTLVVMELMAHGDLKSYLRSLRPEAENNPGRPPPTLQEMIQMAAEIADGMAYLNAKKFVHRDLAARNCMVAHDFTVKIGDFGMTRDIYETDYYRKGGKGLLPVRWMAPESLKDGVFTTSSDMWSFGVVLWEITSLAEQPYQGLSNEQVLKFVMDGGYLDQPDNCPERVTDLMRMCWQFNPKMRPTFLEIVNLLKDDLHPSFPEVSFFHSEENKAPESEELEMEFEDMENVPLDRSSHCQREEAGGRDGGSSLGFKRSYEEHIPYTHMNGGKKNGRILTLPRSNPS
Method: (§1) To identify the insulin receptor phosphorylation activity of the chemical variant samples of A48m prepared in Example 2-1, an experiment was performed as follows. Particularly, Rat-1/hIR cells were seeded on a 12-well plates at a density of 10⁵ cells per well and cultured overnight in a high glucose Dulbecco's modified Eagle's medium (DMEM) supplemented with 10% fetal bovine serum (FBS). The cells untreated with the aptamer samples were incubated in the DMEM not including FBS for 3 hours, washed three times with 1×PBS, and incubated in a Krebs-Ringer HEPES buffer [25 mM HEPES (pH 7.4), 120 mM NaCl, 5 mM KCl, 1.2 mM MgSO₄, 1.3 mM CaCl₂, and 1.3 mM KH₂PO₄] for 1 hour. The aptamer samples, which were the chemical variants of A48m prepared in Example 2-1, were heated at 95° C. for 5 minutes and cooled at room temperature such that a three-dimensional structure of each aptamer was reconstructed. The aptamers were dissolved in the Krebs-Ringer HEPES buffer for preparation.
(§2) The aptamer samples were added to each well of the 12-well plate and incubated for 1 hour. After 1 hour, the plate was washed three times with 1×PBS and the cells were isolated from the plate and lysed with a lysis buffer. The cell lysates were centrifuged at 4° C. at 14,000 rpm for 15 minutes to isolate proteins. […] Intensities of bands formed on the membrane were quantified via comparison with A48m.

[4] = molecular target: T2, Insulin receptor (hIR) expressed on …; experiment: cell_activity; IR phosphorylation reference, 200 nM, Rat-1/hIR
Method: as §1, §2

[5] = molecular target: T2, Insulin receptor (hIR) expressed on …; experiment: cell_activity; IR phosphorylation, 200 nM, Rat-1/hIR
Method: as §1
The aptamer samples were added to each well of the 12-well plate and incubated for 1 hour. After 1 hour, the plate was washed three times with 1×PBS and the cells were isolated from the plate and lysed with a lysis buffer. The cell lysates were centrifuged at 4° C. at 14,000 rpm for 15 minutes to isolate proteins. The isolated samples were heated at 100° C. for 5 minutes with a 5× sample buffer and slowly cooled at room temperature to prepare western blot samples. The prepared samples were subjected to electrophoresis on 4%-12% SDS-PAGE for 1 hour and 30 minutes and transferred to a nitrocellulose membrane for 1 hour and 30 minutes. Then, the membrane was blocked at room temperature for 40 minutes in a blocking buffer solution (1×PBST, 3% skim milk) and incubated for 1 hour at room temperature with a primary antibody [anti-phosphor-IR (10C3), Santa Cruz Biotechnology or anti-β-actin (D6A8), Cell Signaling Technology] diluted in a blocking buffer at 1:500 or 1:1000. The membrane was washed three times with 1×PBS and incubated for 1 hour at room temperature with a secondary binding antibody diluted in the blocking buffer at 1:20000, and washed three times with 1×PBST. An ECL solution was sprayed onto the membrane, followed by incubation at room temperature for 1 minute and exposure to x-rays. Intensities of bands formed on the membrane were quantified via comparison with A48m.

[6] = molecular target: T2, Insulin receptor (hIR) expressed on …; experiment: cell_activity; IR phosphorylation, 200 nM, Rat-1/hIR; Table 5 gives 0.95
Method: as §1, §2

[7] = molecular target: T2, Insulin receptor (hIR) expressed on …; experiment: cell_activity; IR phosphorylation, 200 nM, Rat-1/hIR; Table 5 gives 0.9
Method: as §1, §2

[8] = molecular target: T2, Insulin receptor (hIR) expressed on …; experiment: cell_activity; IR phosphorylation, 200 nM, Rat-1/hIR; Table 5 gives 0.77
Method: as §1, §2

T1 sequence (P15208 28-748, chain 1 of 2): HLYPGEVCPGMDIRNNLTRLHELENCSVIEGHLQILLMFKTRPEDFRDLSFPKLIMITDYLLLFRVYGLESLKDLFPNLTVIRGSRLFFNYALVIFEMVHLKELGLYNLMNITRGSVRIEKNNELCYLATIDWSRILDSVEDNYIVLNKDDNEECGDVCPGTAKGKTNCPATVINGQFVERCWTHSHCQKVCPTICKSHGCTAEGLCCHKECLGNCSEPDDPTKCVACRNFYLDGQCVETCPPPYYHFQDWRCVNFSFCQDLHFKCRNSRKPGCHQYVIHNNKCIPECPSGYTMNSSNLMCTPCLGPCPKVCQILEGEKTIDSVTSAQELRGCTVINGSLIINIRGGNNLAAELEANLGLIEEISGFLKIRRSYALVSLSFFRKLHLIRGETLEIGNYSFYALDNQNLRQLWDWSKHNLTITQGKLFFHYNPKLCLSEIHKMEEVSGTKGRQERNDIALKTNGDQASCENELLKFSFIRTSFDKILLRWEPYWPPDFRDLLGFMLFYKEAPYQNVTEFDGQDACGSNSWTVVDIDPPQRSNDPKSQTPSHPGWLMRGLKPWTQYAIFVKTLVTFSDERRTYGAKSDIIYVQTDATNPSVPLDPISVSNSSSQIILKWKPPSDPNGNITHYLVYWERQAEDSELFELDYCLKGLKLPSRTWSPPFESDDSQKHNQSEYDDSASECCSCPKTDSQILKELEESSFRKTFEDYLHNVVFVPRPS
T1 sequence (P15208 753-1372, chain 2 of 2): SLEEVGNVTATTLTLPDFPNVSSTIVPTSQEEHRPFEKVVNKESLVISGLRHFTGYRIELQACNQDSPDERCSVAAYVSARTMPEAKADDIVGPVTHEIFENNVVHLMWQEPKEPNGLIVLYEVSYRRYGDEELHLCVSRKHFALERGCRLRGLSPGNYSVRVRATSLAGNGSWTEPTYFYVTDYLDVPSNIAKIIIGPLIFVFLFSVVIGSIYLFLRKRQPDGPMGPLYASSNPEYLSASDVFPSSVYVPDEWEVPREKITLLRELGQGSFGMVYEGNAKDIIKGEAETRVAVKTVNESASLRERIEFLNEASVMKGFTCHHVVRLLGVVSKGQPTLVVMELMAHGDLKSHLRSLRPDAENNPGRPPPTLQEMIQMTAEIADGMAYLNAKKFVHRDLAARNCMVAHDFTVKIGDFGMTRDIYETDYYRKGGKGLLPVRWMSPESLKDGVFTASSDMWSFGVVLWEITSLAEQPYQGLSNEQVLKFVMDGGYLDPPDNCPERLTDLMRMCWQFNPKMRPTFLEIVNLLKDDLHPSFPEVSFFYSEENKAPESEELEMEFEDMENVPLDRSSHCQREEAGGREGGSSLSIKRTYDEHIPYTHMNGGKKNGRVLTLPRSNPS

B1: A48m combi 3 (ssDNA)
DNA: CCUGGTGTTTAGACGACCTATAGGTTAGG
modifications: CmeCmeUmeGGPGZPLPAmeGAmeCfGAmeCfCmePAmePAGGmePPAmeGmeGme-idT; me = 2'-OMe, f = 2'-F, P = naphthyl-dU, Z = benzyl-dU, L = C3 linker, 3' idT [2'-OMe at 1,2,3,11,13,16,18,20,24,27,28,29; 2'-F at 14,17; naphthyl-dU at 6,9,10,19,21,25,26; benzyl-dU at 8; C3 linker (left out) between 9 and 10; 3' idT (left out) after 29]
Q: With B1 as the binder, how does the IC50 [1] read?
A: Its IC50 is 11 nM.

Q: And the EC50 [2]?
A: Its EC50 is 16.5 nM.

Q: CGCCTGGTGTTCTAGACGACCTATAGGTTAGGC (ssDNA, P = naphthyl-dU; benzyl-dU at position 10) [A48m P10Z] was tested. Which activity [3] did it give?
A: The activity was 2.7 fold of A48m.

Q: For CGCCTGGTGTTCTAGACGACCTATAGGTTAGGC (ssDNA, P (n) = naphthyl-dU) [A48m (A48 seq 1-19)], which activity [4] is on record?
A: Its activity is 1 fold of A48m.

Q: For CGCCTGGTGTTCTAGACGACCTATAGGTTAGGC (ssDNA, P = naphthyl-dU; C3 linker at position 18) [A48m G18 C3-linker], which activity [5] is on record?
A: Its activity is 1.16 fold of A48m.

Q: CGCCTGGTGTTCTAGACGACCTATAGGTTAGGC (ssDNA, P = naphthyl-dU; C3 linker at position 12) [A48m C12 C3-linker] was tested. Which activity [5] did it give?
A: The activity was 1.7 fold of A48m.

Q: With CGCCTGGTGTTCTAGACGACCTATAGGTTAGGC (ssDNA, P = naphthyl-dU; 2'-OMe at position 2) [A48m G2 2'-OMe] as the binder, how does the activity [5] read?
A: The activity was 1.28 fold of A48m.

Q: With CGCCTGGTGTTCTAGACGACCTATAGGTTAGGC (ssDNA, P = naphthyl-dU; benzyl-dU at position 28) [A48m P28Z] as the binder, how does the activity [6] read?
A: Its activity is 1.09 fold of A48m.

Q: For CGCCTGGTGTTCTAGACGACCTATAGGTTAGGC (ssDNA, P = naphthyl-dU; benzyl-dU at position 13) [A48m P13Z], which activity [7] is on record?
A: The activity was 1 fold of A48m.

Q: How did the activity [8] turn out when CGCCTGGTGTTCTAGACGACCTATAGGTTAGGC (ssDNA, P = naphthyl-dU; benzyl-dU at position 29) [A48m P29Z] was run?
A: Its activity is 0.9 fold of A48m.

Q: Which activity [5] does the source give for CGCCTGGTGTTCTAGACGACCTATAGGTTAGGC (ssDNA, P = naphthyl-dU; 2'-F at position 27) [A48m G27 2'-F] here?
A: The activity was 1.11 fold of A48m.
